Experimental data as given in publication doi:10.1101/2020.08.19.257725 (bioRxiv, 2020).

B1: Nb126 (VHH)
VHH: QVQLVESGGGLVQAGGSLRLSCAASGLTFSNYVMGWFRQAPGKEREFVAYIHWSGGRILYADSVKGRFTISRDNTKNTMYLQMNSLKPDDTAVYYCTADQYATTVLRAAGEYWGQGTQVTVSE
B2: Nb80 (VHH)
VHH: EVQLVESGGGLVQAGGSLRLSCTASGRTFTPYTMGWFRQAPGKEREFVASILWSGNNRDYADSVKGRFAISRDNAKNTAYLQMTSLKPEDTAVYYCAAGDGLGFYRSVNQYDYWGQGTQVTVS
B3: Nb13 (VHH)
VHH: HVQLVESGGELVQAGGSLRLSCAASGRTFSNYAMGWFRQAPGTEREFVAAISRSGGSTYYADSVKGRFIISRDNAKNTVWLQMNMLKPEDTSVYYCAAAEGLASGSYDYAPPLKSSWYDYWGQGTQVTVSE
B4: Nb77 (VHH)
VHH: QVQLVESGGGLVQAGGSLRLSCTASGRTYEPLVMGWFRQAPGKEREFVATITPSGGSLSYADSVKGRFTVSRDNAKKTVYLQMNRLQPEDTAVYYCAAAPGVGNYRYTRQYDYWGQGTQVTVSE
B5: Nb132 (VHH)
VHH: HVQLVESGGGLVQAGGSLRLSCAASGGTISNYGMGWLRQGPGKEREFVGSINWNGATTHYADSVKGRFIISRDNAKNTVYLQMNSLKPEDTGVYYCVAQFSVQPTLRTYDYGGQGTQVTVSE

Columns and labels:
Human serum albumin [1] = target: T1, Human serum albumin (Homo sapiens, UniProt P02768); assay: SPR
mouse albumin [2] = target: T2, mouse albumin (Mus musculus, UniProt P07724); assay: ELISA
Human serum albumin [3] = target: T1, Human serum albumin; assay: pull-down
[4] = target: cynomolgus monkey albumin (Macaca fascicularis, UniProt A2V9Z4); assay: pull-down
mouse albumin [5] = target: T2, mouse albumin; assay: pull-down

T2 sequence (P07724 25-608): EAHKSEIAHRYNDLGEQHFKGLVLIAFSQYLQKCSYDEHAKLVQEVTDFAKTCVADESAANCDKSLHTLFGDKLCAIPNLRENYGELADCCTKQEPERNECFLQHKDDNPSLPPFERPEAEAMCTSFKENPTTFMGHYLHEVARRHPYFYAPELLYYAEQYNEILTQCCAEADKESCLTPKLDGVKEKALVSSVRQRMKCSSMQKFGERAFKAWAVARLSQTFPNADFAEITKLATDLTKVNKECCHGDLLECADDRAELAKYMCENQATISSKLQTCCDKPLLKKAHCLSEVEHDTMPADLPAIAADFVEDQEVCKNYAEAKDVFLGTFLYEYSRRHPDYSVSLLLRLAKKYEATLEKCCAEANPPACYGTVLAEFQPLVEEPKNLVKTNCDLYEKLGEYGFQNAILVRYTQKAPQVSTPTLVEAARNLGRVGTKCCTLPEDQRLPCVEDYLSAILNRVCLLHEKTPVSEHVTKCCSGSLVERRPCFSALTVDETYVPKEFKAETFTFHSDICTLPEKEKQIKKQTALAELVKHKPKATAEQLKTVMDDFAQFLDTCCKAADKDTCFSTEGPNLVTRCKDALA
Chain of cynomolgus monkey albumin (A2V9Z4 25-608): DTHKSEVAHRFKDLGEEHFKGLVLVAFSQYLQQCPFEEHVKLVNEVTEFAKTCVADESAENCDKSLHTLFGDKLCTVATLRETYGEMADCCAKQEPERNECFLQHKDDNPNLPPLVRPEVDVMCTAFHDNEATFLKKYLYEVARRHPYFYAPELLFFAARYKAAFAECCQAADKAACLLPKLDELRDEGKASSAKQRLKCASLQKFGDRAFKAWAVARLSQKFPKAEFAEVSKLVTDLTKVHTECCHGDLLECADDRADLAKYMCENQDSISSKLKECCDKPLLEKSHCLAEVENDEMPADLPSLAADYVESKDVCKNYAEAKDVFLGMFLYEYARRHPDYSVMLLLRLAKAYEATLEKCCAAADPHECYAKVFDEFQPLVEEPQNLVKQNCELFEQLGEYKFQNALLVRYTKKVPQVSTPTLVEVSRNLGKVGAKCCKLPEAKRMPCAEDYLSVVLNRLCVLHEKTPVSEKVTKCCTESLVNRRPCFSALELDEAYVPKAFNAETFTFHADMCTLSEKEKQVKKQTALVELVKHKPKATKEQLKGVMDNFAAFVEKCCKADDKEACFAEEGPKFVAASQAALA

| Binder | Kd (Human serum albumin [1]) | binding result (mouse albumin [2]) | other results |
| --- | --- | --- | --- |
| B1 | 0.251 nM |  |  |
| B2 | 0.166 nM | binds |  |
| B3 | 0.201 nM |  |  |
| B4 |  | binds |  |
| B5 |  |  | binding result (Human serum albumin [3]): binds; binding result [4]: binds; binding result (mouse albumin [5]): binds |
